{
  "source": "patent US20220228157A1",
  "about": "“GENE EDITING IN DIVERSE BACTERIA” (priority 2019, published 2022)",
  "molecules": {"B1": {"name": "MspRecT: RecT variant known to enable high genome editing efficiency in M. smegmatis (protein)", "chain": "MAENAVTKQDSPKAPETISQVLQVLVPQLARAVPKGMDPDRIARIVQTEIRKSRNAKAAGIAKQSLDDCTQESFAGALLTSAALGLEPGVNGECYLVPYRDTRRGVVECQLIIGYQGIVKLFWQHPRASRIDAQWVGANDEFHYTMGLNPTLKHVKAKGDRGNPVYFYAIVEVTGAEPLWDVFTADEIRELRRGKVGSSGDIKDPQRWMERKTALKQVLKLAPKTTRLDAAIRADDRPGTDLSQSQALALPSTVKPTADYIDGEIAEPHEVDTPPKSSRAQRAQRATAPAPDVQMANPDQLKRLGEIQKAEKYNDADWFKFLADSAGVKATRAADLTFDEAKAVIDMFDGPNA"}, "B2": {"name": "PF071: SSAP candidate (protein)", "chain": "MALTPGLVTLNHAKIMSNESTDKLDLPQAPVPKKTLYEIVMSEDVKTHITQFVEGMMTPERCISIFWNCCQKTPLLQQCAPITLISSLKNLLLMRCEPDGIHGYLVPFWVNDKRTGNSILTCAPVPSARGLMRMARSNGVTNLNIGIVREGEPFSWRLDDGKFTMGHIPGWGDNEDPIRGFYCTWTDKDSYLHGERMSLKAVEEIKGRSKSKNKKGEIVGPWVTDFGQMGLKTVIKRASKQWDLPLVIQAAMQAADDQEFEGNMRNVTPEKTDGPAEGETPWNNAPAPEAFQNDQPEALPEPKPEGQDDLIPGLKMPAPKETATVNMEDY", "modifications": "Akkermansia sp KLE1798", "notes": "SSAP candidate"}, "B3": {"name": "PF076: SSAP candidate (protein)", "chain": "MTGPELAAAAKQTAQQAGSATVKKFFEANRGTLEALLPRHFDSERMLKLALGALRTTPKLANASLSSLLGSVVTCAQLGLEPNTPLGHAYLLPFDKREKQNGQWVTVETQVQVIIGYKGMLDLARRSGQIVSIAAHEVCQNDEFVFAYGLNEELVHRPAMKDRGPVIGFYAVAKLTGGGYSFEFMSVDEVNHIRDKAAEKNRAKRDAAGNPIITGPWADNYVEMGRKTVLRRLFKYLPISIESLAFASAVDGQAIREPAPLEQVAFESSEPAEEPTSYDQQDEDLRALEQSQPARVPPVQVEQPAEAWQPSAEEAAELERQQAAEAAADQQRASAPRGRGQRSMSLE", "modifications": "Methyloversatilis universalis (strain ATCC BAA-1314 / JCM 13912 /FAM5)", "notes": "SSAP candidate"}, "B4": {"name": "LrpRecT: RecT variant known to enable high genome editing efficiency in L. lactis (protein)", "chain": "MANQVAQQQKPTKLTDLVLDRVKQMQDTQDLSLPKNYNASNALNAAFLELQKVQDRNHRPALEVCSHDSIVKSLLDMTLQGLSPAKDQCYFIVYGNELQMQRSYFGTVAAVKRLDGVKKVRAEVVHEKDDFEIGANEDMELVVKRFVPKFENQDNQIIGAFAMIKTDEGTDFTVMTKKEIDQSWAQTRQKNNKVQQNFSQEMAKRTVLNRAAKMFINTSDDSDLLTGAINDTTSNEYDDERRDVTPVEDEKQSTDKLLEGFQKSQEAKAKWVSNDGNSNEGKETSEEVADGQTELFSEGTIKPADEADS"}, "B5": {"name": "L1SSB: single-stranded binding protein from L. lactis (protein)", "chain": "MINNVVLVGRITRDPELRYTPQNQAVATFSLAVNRQFKNANGEREADFINCVIWRQQAENLANWAKKGALIGVTGRIQTRNYENQQGQRVYVTEVVADSFQMLESRSARDGMGGGASAGSYSAPSQSTNNTPRPQTNNNSATPNFGRDADPFGSSPMEISDDDLPF"}, "B6": {"name": "PF074: SSAP candidate (protein, listed as Rhizobium loti)", "chain": "MMNAITTYTHSPRQLALIQKTVAKDCNTDEFNLFVEVARAKGLDPFLGQIIPMIFSKGDSNKRKMTIIISRDGQRVIAQRCGDYRPASKPPSYEFDAELKSETNPQGIVSATVYLWKQDAKTAAWFEVAGQSYWDEFAPISYPYDAYKMVDTGETWEDSGKPKKKRVLRDGATPQLDDSGNWCRMPRLMIAKCAEMQALRAGWPEQFTGLYDEAEMDRAKVLEMAASEIVAHEQEENRLRLVAGNDAITMSWGDGWALENVPAGEFMDRCLAFIRESDHQTVVKWNSANRAGLQLFWAKHPGDALELKKAIEKASRAPVEIDHIADAARREIAQHPVSAG"}, "B7": {"name": "N003: SSAP candidate (protein, listed as Escherichia coli)", "chain": "MTKQPPIAKADLQKTQGNRAPAAVKNSDVISFINQPSMKEQLAAALPRHMTAERMIRIATTEIRKVPALGNCDTMSFVSAIVQCSQLGLEPGSALGHAYLLPFGNKNEKSGKKNVQLIIGYRGMIDLARRSGQIASLSARVVREGDEFSFEFGLDEKLIHRPGENEDAPVTHVYAVARLKDGGTQFEVMTRKQIELVRSLSKAGNNGPWVTHWEEMAKKTAIRRLFKYLPVSIEIQRAVSMDEKEPLTIDPADSSVLTGEYSVIDNSEE"}, "B8": {"name": "SR063: SSAP candidate (protein)", "chain": "MHLIHQSGEVKMQLSPETNEILPALFNARNKFAKAKKDAKNNHLKNSYATLDAMMAAVSPALTDNDIMILQSMLDTSTETTFHLETMLIHKSGQWAKFFMMMPIAKRDPQGVGSAMTYARRYSLAAALGISQSDDDAQLAVKSVKDWKKELDACEDIESLKDVWANAYRQTDTASKSIIQDHYNALKAKFEIGKARGIRPAQPEQKKQVEATSAKPVQSQSITNFE", "modifications": "Bacteriophage T1", "notes": "SSAP candidate"}},
  "key": {"[1]": {"target": "L. lactis single-stranded binding protein (LlSSB) (L. lactis) (UniProt Q9CDM9)", "test": "cell-based or functional assay"}, "[2]": {"system": "90 bp oligos pre-coated with SSB", "test": "Oligonucleotide annealing and quenching in vitro", "type": "biochemical", "conditions": "two 90 bp oligos pre-coated with SSB", "description": "It was first whether two 90 bp oligos could anneal if they were pre-coated with SSB. SSBs was purified from E. coli (gram-negative), where most recombineering work has been performed, and L. lactis (gram-positive), a lactic acid bacterium phylogenetically distantly related to E. coli. […] It was next tested capacity of a phage RecT protein to overcome this SSB-mediated inhibition of annealing. Thus, Redβ, which is not broadly portable, but mediates efficient oligonucleotide annealing in E. coli, was purified. […] These preliminary results gave us an indication that while bacterial SSBs inhibit oligonucleotide annealing in vitro, RecTs overcome the inhibitory effect in an SSB-specific manner.\nFluorescent (tolC-r.null.mut-3′FAM) and quenching (tolC-f.null.mut-5′IBFQ) oligos were ordered from Integrated DNA Technologies. Unless otherwise indicated, 50 nM of each oligo was incubated in 25 mM TRIS-HCl pH 7.4 with 1.0 μM Ec_SSB or Ll_SSB at 30° C. for 30 minutes. 100 μl of each oligo mixture were then combined into a 96-well clear-bottom black assay plate (Costar), incubated a further 60 minutes at 30° C., and annealing was tracked on a Synergy H4 microplate reader (BioTek) with fluorescence excitation set to 495 nm and emission set to 520 nm. After 60 minutes, 20 μl of a solution with or without 25 μM Redβ and containing 100 mM MgCl2 was added to achieve a final reaction concentration of 2.5 μM Redβ and 10 mM MgCl2. The annealing was then tracked over 10 hours in a the Synergy H4 microplate reader with the setting indicated above."}, "E. coli": {"system": "E. coli", "test": "Allelic recombination frequency, selective vs non-selective plates", "type": "cell-based, Escherichia coli", "conditions": "RecT alone", "procedure": "(§1) Four variants known to enable high genome editing efficiency were selected (Redβ and PapRecT in E. coli, LrpRecT in L. lactis, and MspRecT in M. smegmatis), and tested codon optimized versions of all four in both E. coli (gram-negative), and L. lactis (gram-positive). Genome editing efficiency was measured by introducing oligos encoding known antibiotic resistance mutations, and compared the antibiotic resistant cell counts to the total number of viable cells in the population (FIGS. 17E-17F). […] In L. lactis, LrpRecT was the only functional homolog, and improved oligo incorporation 7,700-fold, while the three other RecT variants were nearly non-functional, improving oligo incorporation less than 7-fold (FIG. 17H). No RecT protein functioned well both in E. coli and L. lactis.\nA single colony of E. coli was grown overnight to saturation. In the morning 30 μL of dense culture was inoculated into 3 mL of fresh media and grown for 1 hour. To induce gene expression of the pARC8 vector for recombineering experiments, L-arabinose was added to a final concentration of 0.2% (w/v) and the cells were grown an additional hour. 1 mL of cells were pelleted at 4° C. by centrifugation at 12,000×g for 2.5 minutes and washed twice with 1 mL of ice-cold dH2O. Cells were resuspended in 50 μL ice-cold dH2O containing DNA and transferred to a pre-chilled 0.1 cm electroporation cuvette.\n(§2) Electrocompetent cells were electroporated with 90-mer oligos at: 1 uM for E. coli, 50 μg for L. lactis, and 10 uM for C. crescentus. 70-mer oligos were used at 1 μg for M. smegmatis. All oligos were obtained from IDT and can be found under “Oligonucleotides for genome editing” in materials and methods. For dsDNA experiments L. lactis was electroporated with 1.5 μg purified linear dsDNA. Cells were electroporated using a Bio-Rad gene pulser set to 25 μF, 200 S2, and 1.8 kV for E. coli, 2.0 kV for L. lactis, and 1.5 kV for C. crescentus and to 1000Ω and 2.5 kV for M. smegmatis. Immediately after electroporation, cells were recovered in fresh media for 3 hours for E. coli, 1 hour for L. lactis, overnight for M. smegmatis and overnight for C. crescentus. L. lactis recovery media was supplemented with MgCl2 and CaCl2) at a concentration of 20 mM and 2 mM, respectively. E. coli recovery media was supplemented with carbenicillin. M. smegmatis recovery media was supplemented with hygromycin. C. crescentus recovery media was supplemented with 0.3% xylose and kanamycin. After recovery, the cells were serial diluted and plated on non-selective vs. selective agar plates to obtain approximately 50-500 CFU/plate. Colonies were counted using a custom script in Fiji, and allelic recombination frequency was calculated by dividing the number of colonies on selective plates, with the number of colonies on non-selective plates."}, "L. rhamnosus": {"system": "L. rhamnosus", "type": "cell-based", "procedure": "Finally, the model for RecT was used to establish recombineering in L. rhamnosus, a well-studied probiotic used to treat a variety of illnesses including diarrhea and bacterial vaginosis. Although the L. rhamnosus SSB and L. lactis SSB only have 47% identity, they share identical SSB C-terminal tail 7 amino acids. It was determined whether LrpRecT (which functions in L. lactis) is portable to L. rhamnosus, while the other RecT proteins would not be functional."}, "[3]": {"system": "Agrobacterium tumefaciens", "test": "SSAP candidate enrichment", "type": "cell-based", "procedure": "(§3) The editing efficiency of SSAP candidates was also tested in Agrobacterium tumefaciens and in Staphylococcus aureus using the methods described above."}, "L. lactis": {"system": "L. lactis", "test": "Allelic recombination frequency, selective vs non-selective plates", "type": "cell-based, Lactococcus lactis", "conditions": "RecT alone", "procedure": "as §1\nA single colony of L. lactis was grown overnight to saturation. 500 μL of dense culture was inoculated into 5 mL of fresh media, supplemented with 500 mM sucrose and 2.5% (w/v) glycine, and grown for 3 hours. To induce gene expression of the pJP005 vector for recombineering experiments, the cells were grown for an additional 30 min after adding 1 ng/mL freshly diluted nisin, unless stated otherwise. For the optimized condition (FIG. 20B), 10 ng/mL nisin was used. Cells were pelleted at 4° C. by centrifugation at 5,000×g for 5 minutes and washed twice with 2 mL of ice-cold electroporation buffer (500 mM sucrose containing 10% (w/v) glycerol) by centrifugation at 13,200×g for 2.5 minutes. Cells were resuspended in 80 μL ice-cold electroporation buffer containing DNA and transferred to a pre-chilled 0.1 cm electroporation cuvette.\nas §2"}, "Staphylococcus aureus": {"system": "Staphylococcus aureus", "test": "SSAP candidate enrichment", "type": "cell-based", "procedure": "as §3"}},
  "data": [
    {"molecule": "MspRecT", "values": [
      {"measurement": "genome editing efficiency in L. lactis (fold lower than the cognate pair)", "setting": "[1]", "value": 33}
    ]},
    {"molecule": "EcSSB: single-stranded binding protein from E. coli [reference compound]", "values": [
      {"measurement": "Effect of SSB on oligonucleotide annealing", "setting": "[2]", "value": "completely inhibited oligonucleotide annealing"}
    ]},
    {"molecule": "B1", "values": [
      {"measurement": "Improvement of oligo incorporation", "setting": "E. coli", "value": 290, "unit": "fold"},
      {"measurement": "Toxicity in L. rhamnosus", "setting": "L. rhamnosus", "value": "toxic"}
    ]},
    {"molecule": "B2", "values": [
      {"measurement": "Editing efficiency (enrichment) relative to other SSAP candidates", "setting": "[3]", "value": "increase in editing efficiency"}
    ]},
    {"molecule": "B3", "values": [
      {"measurement": "Editing efficiency (enrichment) relative to other SSAP candidates", "setting": "[3]", "value": "increase in editing efficiency"}
    ]},
    {"molecule": "B4", "values": [
      {"measurement": "Improvement of oligo incorporation", "setting": "E. coli", "value": 5.6, "unit": "fold"},
      {"measurement": "Improvement of oligo incorporation", "setting": "L. lactis", "value": "7,700 fold"},
      {"measurement": "Oligonucleotide incorporation", "setting": "L. rhamnosus; L. rhamnosus", "value": "three orders of magnitude above the background level"}
    ]},
    {"molecule": "B5", "values": [
      {"measurement": "Effect of SSB on oligonucleotide annealing", "setting": "[2]", "value": "completely inhibited oligonucleotide annealing"}
    ]},
    {"molecule": "B6", "values": [
      {"measurement": "Editing efficiency (enrichment) relative to other SSAP candidates", "setting": "[3]", "value": "increase in editing efficiency"}
    ]},
    {"molecule": "B7", "values": [
      {"measurement": "Editing efficiency (enrichment) relative to other SSAP candidates", "setting": "[3]", "value": "increase in editing efficiency"}
    ]},
    {"molecule": "B8", "values": [
      {"measurement": "Editing efficiency (enrichment) relative to other SSAP candidates", "setting": "Staphylococcus aureus", "value": "increase in editing efficiency"}
    ]}
  ]
}
